One test concerns the target human ICOS (human) (UniProt Q9Y6W8). Put plainly: Biacore, human ICOS.
The target of test [1] is cynomolgus ICOS (cynomolgus). Put plainly: Biacore, cyno ICOS. For orientation: In SPR one partner is held on a chip, and binding of the other changes the refractive index at the surface.

Experimental findings from patent US20180030136A1 are described below.

As usually defined, the Kd is the free concentration of one partner at which half of the binding sites on the other are occupied at equilibrium, for simple one-to-one binding. A higher Kd goes with lower affinity.

human ICOS (human), sequence (Q9Y6W8 21-140 limits assumed): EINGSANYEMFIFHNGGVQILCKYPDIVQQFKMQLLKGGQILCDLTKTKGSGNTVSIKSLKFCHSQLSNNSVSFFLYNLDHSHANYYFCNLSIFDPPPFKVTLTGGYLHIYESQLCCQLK

B1: ICOS mAb clone 314.8 (antibody, from another filing, V domains shown)
VH: QVQLQQPGTELMKPGASVKLSCKASGYTFTTYWMHWVKQRPGQGLEWIGEIDPSDSYVNYNQNFKGKATLTVDKSSSTAYIQLSSLTSEDSAVYFCARSPDYYGTSLAWFDYWGQGTLVTVST
VL: DIVMTQAAPSVPVTPGESVSISCRSSKSPLHSNGNIYLYWFLQRPGQSPQLLIYRMSNLASGVPDRFSGSGSGTTFTLKISRVEAEDVGVYYCMQHLEYPYTFGGGTKLEIK
As for B1, the dissociation constant Kd with human ICOS (human) is 17 nM; in test [1], 9.3 nM.
